Experimental data published in patent US20250376535A1 (BEIJING STARMAB BIOMED TECHNOLOGY, published 2025).
Read-outs that look alike come from different tables or passages of the source.

T1: recombinant human OX40-Fc (human, UniProt P43489 29-214)
T1 construct: also called rh-OX40-Fc; human OX40 hFC (R & D systems)
T1 sequence: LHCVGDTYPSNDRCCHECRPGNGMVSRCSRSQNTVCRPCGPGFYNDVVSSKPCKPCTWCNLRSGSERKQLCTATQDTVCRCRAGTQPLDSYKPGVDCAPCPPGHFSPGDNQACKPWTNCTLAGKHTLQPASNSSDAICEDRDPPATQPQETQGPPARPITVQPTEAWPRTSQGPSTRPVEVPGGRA

B1: pgXX88-SZ-15 (VHH, not shown: small tags and cut ends)
VHH: QVQLVESGGGLVQPGGSLRLSCSPSEGAFKMLTTGWFRQVLGKEREFVSAISWGGGATYYADSVKGRFTVSRDNAKNTVYLQMNSLKPEDTAVYYCAVDTGNGVATNIRSQSRYDYWGQGTQVTVSS
B2: MSA4 (VHH)
VHH: EVQLVEFGGGLVQAGGSLRLSCAASGRTDSAYRMGWFRQAPGKEREFVSAINWSDGRTVYLDSVKGRFTISRDNAKNMVYLQMNSLKPEDTAVYYCAADPDSRLYYTVPQNYDYWGQGTQVTVSS
notes: Llama single domain antibody with C-terminal His-tag, made in HEK293; not shown: C-terminal His-tag
B3: pgDD40-HZ-24 (VHH, not shown: small tags and cut ends)
VHH: EVQLVESGGGSVQAGGSLRLSCAASLSTFSNYRMGWFRRAPGKERELVARIEPHGVVDYGDSVKGRFTISRDNAKNTVTVYLHMNSLKPEDTAVYYCNALRLISGRYDPLFSSWGQGTQVTVSS
notes: also called pgDD40-HG-24
B4: 4-1BB-59 (VHH, not shown: small tags and cut ends)
VHH: EVQLVESGGGLVQPGESLRLSCAASGDTVSGYVMLWWRQAPGKERELVAAISSVGYTYYTDSVKGRFTISRDNAKNTVYLQMNSLKPEDTAVYYCAADPASISTRSAYWGQGTQVTVSS
B5: pgXX88-SZ-4 (VHH, not shown: small tags and cut ends)
VHH: QVQLVESGGGLAQPGSSLRLSCTASGTVFSILSATWFRQAPGKAHEARELVAFISSDGVSMHADSVKGRFTISRDNAASTVYLQMDNLQPEDTAVYFCKLSNSMMSLEYWGRGTQVTVSS
notes: also called ppXX88-SZ-4
B6: pgXX88-10 (VHH, not shown: small tags and cut ends)
VHH: EVQLVESGGGLVQAGESLRLSCSASGSIRLNAVGWFRQAPVNQRLMVATITHNNSTNYADSVQGRFTIARDDAKNTVTLQMNSLKPEDTAVYMCKVYQLPVPISSHDDYWGQGTQVTVSS

Legend:
[1] = molecular target: T1, recombinant human OX40-Fc; test: ELISA, OX40-Fc coated, VHH at 8 nM
Description: (§1) After four times washing with PBST, the plate was incubated with detecting antibody anti-his-HRP (1:4000 dilution) 100 μl per well for one hour with shaking at 60 rpm. The plate was developed with 100 μL of TMB per well in the dark and then stopped by 50 μL of stop solution per well. […] Data was analyzed using GraphPad Prisma 9.1.

[2] = molecular target: T1, recombinant human OX40-Fc; test: ELISA, OX40-Fc coated, VHH at 40 nM
Description: as §1

[3] = molecular target: T1, recombinant human OX40-Fc; test: ELISA, OX40-Fc coated, VHH at 1.6 nM
Description: as §1

[4] = molecular target: T1, recombinant human OX40-Fc; test: ELISA, OX40-Fc coated, VHH at 200 nM
Description: as §1

[5] = molecular target: T1, recombinant human OX40-Fc; test: ELISA, OX40-Fc coated, VHH at 0.32 nM
Description: as §1

[6] = molecular target: T1, recombinant human OX40-Fc; test: ELISA, OX40-Fc coated, VHH at 1000 nM
Description: as §1

[7] = molecular target: T1, recombinant human OX40-Fc; test: ELISA, OX40-Fc coated, VHH at 0.064 nM
Description: as §1

[8] = molecular target: T1, recombinant human OX40-Fc; test: ELISA, OX40-Fc coated, VHH at 0.0128 nM
Description: as §1

[9] = molecular target: T1, recombinant human OX40-Fc; test: BLI, VHH-His on anti-His tips, OX40 hFc in solution;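 also: kinetics recorded at 30 °C in PBS pH 7.2, with 200 s of association followed by dissociation monitored in PBS lacking the OX40 protein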
Description: Bio-Layer Interferometry (BLI) kinetic binding analysis. […] Affinity measurements were performed with Gator equipped with Anti-Penta-His capture (HIS1K) biosensor tips. The assay was performed at 30° C. in 1×PBS buffer (Gibco®, PBS pH7.2). Samples were agitated at 1000 rpm. Prior to analysis, sensors were humidified for 15 min. Purified anti-OX40 VHH was tested for its binding capacity with HIS1K sensor tips. Tips were loaded using 20 μg/ml of anti-OX40 VHH. Loading proceeded for 300 s resulting in capture levels of between 1.8 and 2 nm. […] Association was initiated and monitored for 200 sec, after which tips were transferred to 1×PBS buffer without Factor protein (Gibco, PBS pH 7.2), in order to monitor dissociation. Sensor data was collected throughout the experiments, processed, and analyzed using the Gator data analysis software.

[10] = molecular target: T1, recombinant human OX40-Fc; test: blocking ELISA, OX40-hFc premixed with VHH on coated OX40L-mFc; full blocker; full blocker
Description: (§2) Blocking Assay. The 96-well plate was coated with 100 μL of 1 μg/mL OX40L-mFc prepared in antigen coating buffer overnight at 4° C., then blocked with 2% BSA for 1 hour at 25° C. […] The plate was washed with PBST four times, then incubated with Mouse anti-human IgG Fc-HRP at 25° C. for 1 hour. After four times of wash with PBST, the plate was developed with 100 μL of TMB per well for 10 to 20 min in the dark and then stopped by adding 50 μL of Stop Solution.

murine serum albumin [11] = molecular target: T2, murine serum albumin (murine, UniProt P07724 25-608); test: ELISA, murine serum albumin coated, VHH 0.128 nM
T2 construct: As antigen 'MSA' means murine serum albumin; the VHHs also carry the label MSA; also called MSA
Description: The 96-well plate was coated with 100 μL per well of HSA or MSA (murine serum albumin) prepared at 1 μg/ml in coating buffer at 4° C. overnight, then blocked with 200 μL per well of casein for one hour at room temperature. MSA VHHs were made into a series of dilutions and added to HSA or MSA coated plate for one hour incubation. The plate was washed with PBST four times, then incubated with Streptavidin conjugated with HRP at 25° C. for 1 hour. After three times of wash with 250 μL PBST per well, the plate was developed with 100 μL of TMB per well for 10 to 20 min in the dark and then stopped by adding 100 μL of Stop Solution.

human serum albumin [12] = molecular target: T3, human serum albumin (human, UniProt P02768 25-609); test: BLI (Gator), His-tagged VHH on anti-His sensor, HSA 100 nM in solution
T3 construct: also called HSA
Description: (§3) Kinetic binding analysis of MSA VHHs were performed with Gator Prime system equipped with analyze software. […] The experiments were done at 30° C. Prior to analysis, sensors were socked in Q buffer for 600 sec with shaking at 1000 rpm, and then 2 μM of HIS tagged MSA VHHs were loaded to Anti-His sensors with shaking at 400 rpm for 120 sec. Loaded sensors were transferred into Q buffer for 60 sec. Association of HSA or MSA at 100 nM was initiated and monitored for 120-180 sec with shaking at 1000 rpm, and finally dissociation in Q buffer for 120-180 sec with 1000 rpm shaking. Software V2.0 (Gator Bio) was used for data analysis. The on-rate (Kₒₙ) and off-rate (Kd) were determined by fitting of the association and dissociation phases of each sample. The mathematical model used assumes a 1:1 stoichiometry, fitting only one analyte in solution binding to one binding site on the surface. The equilibrium dissociation constant (KD), a measure for affinity, was then calculated as the ratio of Kd and Kₒₙ.

human serum albumin [13] = molecular target: T3, human serum albumin; test: as above; remark: listed apart in the source
Description: as §3

murine serum albumin [14] = molecular target: T2, murine serum albumin; test: BLI (Gator), His-tagged VHH on anti-His sensor, murine serum albumin 100 nM in solution
Description: as §3

murine serum albumin [15] = molecular target: T2, murine serum albumin; test: as above; remark: listed apart in the source
Description: as §3

[16] = molecular target: T4, recombinant human CD40-Fc (human, UniProt P25942 21-193); test: ELISA, CD40-Fc coated, VHH at 8 nM
T4 construct: also called rh-CD40-Fc; CD40-hFc
Description: (§4) After four times washing with PBST, the plate was incubated with detecting antibody anti-his-HRP (1:4000 dilution) 100 μl per well for one hour with shaking at 60 rpm. The plate was developed with 100 μL of TMB per well in the dark and then stopped by 50 μL of stop solution per well.

[17] = molecular target: T4, recombinant human CD40-Fc; test: ELISA, CD40-Fc coated, VHH at 40 nM
Description: as §4

[18] = molecular target: T4, recombinant human CD40-Fc; test: ELISA, CD40-Fc coated, VHH at 1.6 nM
Description: as §4

[19] = molecular target: T4, recombinant human CD40-Fc; test: ELISA, CD40-Fc coated, VHH at 200 nM
Description: as §4

[20] = molecular target: T4, recombinant human CD40-Fc; test: ELISA, CD40-Fc coated, VHH at 0.32 nM
Description: as §4

[21] = molecular target: T4, recombinant human CD40-Fc; test: ELISA, CD40-Fc coated, VHH at 1000 nM
Description: as §4

[22] = molecular target: T4, recombinant human CD40-Fc; test: ELISA, CD40-Fc coated, VHH at 0.013 nM
Description: as §4

[23] = molecular target: T4, recombinant human CD40-Fc; test: ELISA, CD40-Fc coated, VHH at 0.064 nM
Description: as §4

[24] = molecular target: T4, recombinant human CD40-Fc; test: ELISA, CD40-Fc coated, VHH at 0.0026 nM
Description: as §4

[25] = molecular target: T5, Human CD40 antigen (recombinant, BLI) (human, UniProt P25942 21-193); test: BLI, VHH-His on anti-His tips, human CD40 in solution;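 also: kinetics measured at 30 °C in PBS pH 7.2, association tracked for 200 s, then dissociation followed in PBS lacking CD40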
T5 construct: also called rh-CD40

[26] = molecular target: T4, recombinant human CD40-Fc; test: blocking ELISA: CD40L-mFc (1.m18) coated, VHH premixed with CD40-hFc, bound CD40-hFc detected with anti-human IgG Fc-HRP, OD450
Description: The 96-well plate was coated with 100 μL of 1 μg/mL CD40L-mFc prepared in antigen coating buffer overnight at 4° C., then blocked with 2% BSA for 1 hour at 25° C. […] The plate was washed with PBST four times, then incubated with Mouse anti-human IgG Fc-HRP at 25° C. for 1 hour. After four times of wash with PBST, the plate was developed with 100 μL of TMB per well for 10 to 20 min in the dark and then stopped by adding 50 μL of Stop Solution.

Human 41BB antigen (BLI) = molecular target: T6, Human 41BB antigen (BLI) (human, UniProt Q07011 24-183); test: BLI, VHH-His on anti-His tips, human 41BB in solution;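 also: association tracked for 200 s, after which dissociation was followed in 1×PBS free of 41BB protein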
T6 construct: also called 41BB protein
Description: Tips were loaded using 20 μg/ml of anti-41BB VHH. Loading proceeded for 300 sec resulting in capture levels of between 1.8 and 2 nm. […] Association was initiated and monitored for 200 sec, after which tips were transferred to 1×PBS buffer without 41BB protein, in order to monitor dissociation.

4-1BB Fc = molecular target: T7, 4-1BB Fc (human, UniProt Q07011 24-183); test: blocking ELISA: 41BBL-mFc (1.m32) coated, VHH premixed with 41BB-hFc, bound 41BB-hFc detected with anti-human IgG Fc-HRP, OD450
T7 construct: also called rh-41BB; 41BB-hFc
Description: The 96-well plate was coated with 100 μL of 1 μg/mL 41BBL-mFc prepared in antigen coating buffer overnight at 4° C., then blocked with 2% BSA for 1 hour at 25° C. […] The plate was washed with PBST four times, then incubated with Mouse anti-human IgG Fc-HRP at 25° C. for 1 hour. After four times of wash with PBST, the plate was developed with 100 μL of TMB per well for 10 to 20 min in the dark and then stopped by adding 50 μL of Stop Solution.

[27] = molecular target: T1, recombinant human OX40-Fc; test: blocking ELISA, OX40-hFc premixed with VHH on coated OX40L-mFc; partial blocker; partial blocker
Description: as §2

T6 sequence (Q07011 24-183 limits assumed): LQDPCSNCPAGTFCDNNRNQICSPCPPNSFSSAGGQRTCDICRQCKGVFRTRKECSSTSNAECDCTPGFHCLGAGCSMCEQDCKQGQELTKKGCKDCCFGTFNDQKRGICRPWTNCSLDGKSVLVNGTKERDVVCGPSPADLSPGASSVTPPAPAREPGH
T5 sequence (P25942 21-193 limits assumed): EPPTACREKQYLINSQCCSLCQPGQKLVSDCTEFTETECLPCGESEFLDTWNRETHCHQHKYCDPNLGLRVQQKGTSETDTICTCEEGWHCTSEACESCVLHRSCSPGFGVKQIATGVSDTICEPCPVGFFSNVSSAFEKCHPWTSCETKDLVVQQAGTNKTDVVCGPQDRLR
T4 sequence (P25942 21-193): as the sequence (P25942 21-193 limits assumed) above
T7 sequence (Q07011 24-183): as the sequence (Q07011 24-183 limits assumed) above

Binder | OD450 [1] | OD450 [2] | OD450 [3] | OD450 [4] | OD450 [5] | OD450 [6] | OD450 [7] | OD450 [8] | Kd [9] [nM] | koff [9] [s⁻¹] | kon [9] [M⁻¹ s⁻¹] | EC50 [10] [nM] | other results
B1 | 1.89 | 1.95 | 1.66 | 1.94 | 0.736 | 2.12 | 0.166 | 0.068 | 0.48 | 0.000259 | 539000 | 0.12 | 
B2 |  |  |  |  |  |  |  |  |  |  |  |  | ELISA OD450 (murine serum albumin [11]): 0.07; Kd (human serum albumin [12]): 11.3 nM; koff (human serum albumin [12]): 0.00101 s⁻¹; kon (human serum albumin [12]): 89600 M⁻¹ s⁻¹; Kd (human serum albumin [13]): 7.16 nM; koff (human serum albumin [13]): 0.000752 s⁻¹; kon (human serum albumin [13]): 105000 M⁻¹ s⁻¹; Kd (murine serum albumin [14]): 4.49 nM; koff (murine serum albumin [14]): 0.000644 s⁻¹; kon (murine serum albumin [14]): 143000 M⁻¹ s⁻¹; Kd (murine serum albumin [15]): 8.83 nM; koff (murine serum albumin [15]): 0.0011 s⁻¹; kon (murine serum albumin [15]): 125000 M⁻¹ s⁻¹
B3 |  |  |  |  |  |  |  |  |  |  |  |  | OD450 [16]: 1.7; OD450 [17]: 1.71; OD450 [18]: 0.903; OD450 [19]: 1.84; OD450 [20]: 0.251; OD450 [21]: 1.81; OD450 [22]: 0.055; OD450 [23]: 0.084; OD450 [24]: 0.078; Kd [25]: < 0.001 nM; koff [25]: 1e-05 s⁻¹; kon [25]: 607000 M⁻¹ s⁻¹; IC50 (read off the curve) [26]: ~20 nM
B4 |  |  |  |  |  |  |  |  |  |  |  |  | Kd (Human 41BB antigen (BLI)): 2.35 nM; koff (Human 41BB antigen (BLI)): 0.00121 s⁻¹; kon (Human 41BB antigen (BLI)): 512000 M⁻¹ s⁻¹; IC50 (read off the curve) (4-1BB Fc): ~0.5 nM
B5 | 1.12 | 1.49 | 0.463 | 1.58 | 0.126 | 1.78 | 0.076 | 0.062 | 0.185 | 8.73e-05 | 472000 |  | EC50 [27]: 1.98 nM
B6 | 1.48 | 1.54 | 1.46 | 1.61 | 0.993 | 1.62 | 0.369 | 0.119 | < 0.001 | 1e-06 | 662000 | 0.12 | 
